In assay [1] the target is T1, Human TROP2 Protein, His Tag (Acro Biosystems) (human, UniProt P09758 27-274).
T1 construct: Bought protein; not shown: His tag
T1 sequence (looked up): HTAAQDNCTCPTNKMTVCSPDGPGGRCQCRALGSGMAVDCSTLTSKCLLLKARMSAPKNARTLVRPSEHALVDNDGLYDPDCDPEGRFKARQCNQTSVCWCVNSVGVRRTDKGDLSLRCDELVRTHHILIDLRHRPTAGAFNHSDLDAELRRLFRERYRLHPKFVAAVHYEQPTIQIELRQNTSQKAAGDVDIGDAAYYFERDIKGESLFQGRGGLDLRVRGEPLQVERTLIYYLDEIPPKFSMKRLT
Put plainly: BLI (Octet), Ab on anti-human Fc sensor, 50 nM TROP2-His; 2 = No change vs parent. Here is the method: The resulting diluted supernatants were then captured on an anti-human Fc sensor (Forte Bio). A baseline was established using 1×PBST (50 mM Potassium Phosphate Buffer+150 mM NaCl+0.05% Tween 20) pH 7.4, and the sensor was associated with 50 nM of TROP2 (Human TROP2 Protein, His Tag, Acro Biosystems) in 1×PBST pH 7.4 for 120 sec to generate an association curve. In the dissociation phase, the antibody-antigen complex on the sensor was exposed to 1×PBST pH 7.4 or pH 5.4, for 300 sec. Association and dissociation phase curves were examined for the starting ABPC antibody (with no substitutions) and each corresponding antibody variant at pH 5.4 and pH 7.4 to inform on two criteria: a) enhanced dissociation (i.e., higher koff values) at pH 5.4 due to histidine or alanine substitution compared to the starting ABPC, (with no substitutions), and b) reduced dissociation at pH 7.4 (i.e., lower koff values) compared to pH 5.4 in the antibody variant itself and with the starting ABPC (with no substitutions). […] It was also noted that while some mutations obliterated TROP2 binding, others were tolerated with little or n change in TROP2 binding kinetics.
For each such table, the “MYT #” provides an identifier for each antigen binding protein (ABP), and the values from each column (reading along each row) provide characteristics and data associated with each ABP. […]
(In general: In BLI a coated tip is dipped into the sample, and binding shifts an interference pattern.)

For assay [2], the target named is T2, Human TROP2 Protein, His Tag (Acro Biosystems) (human, UniProt P09758 27-274).
T2 construct: not shown: His tag
T2 sequence (looked up): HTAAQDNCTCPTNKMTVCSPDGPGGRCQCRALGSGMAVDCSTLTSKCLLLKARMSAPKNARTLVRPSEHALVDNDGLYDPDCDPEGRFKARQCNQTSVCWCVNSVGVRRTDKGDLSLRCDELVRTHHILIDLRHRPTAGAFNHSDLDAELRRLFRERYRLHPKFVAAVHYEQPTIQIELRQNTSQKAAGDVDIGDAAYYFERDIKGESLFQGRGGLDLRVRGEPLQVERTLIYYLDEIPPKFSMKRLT
Put plainly: BLI (Octet) [2/2].

Assay [3] has as its target T3, Human TROP2 Protein, His Tag (Acro Biosystems) (human, UniProt P09758 27-274).
T3 construct: not shown: His tag
T3 sequence (looked up): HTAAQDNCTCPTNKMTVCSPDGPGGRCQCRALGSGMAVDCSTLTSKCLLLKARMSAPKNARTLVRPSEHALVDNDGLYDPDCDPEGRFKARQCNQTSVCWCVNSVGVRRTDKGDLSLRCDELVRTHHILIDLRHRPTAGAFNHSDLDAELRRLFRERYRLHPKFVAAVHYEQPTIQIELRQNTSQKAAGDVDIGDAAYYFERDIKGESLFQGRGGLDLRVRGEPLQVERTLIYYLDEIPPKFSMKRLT
Briefly: BLI (Octet).

The target of assay [4] is T3, Human TROP2 Protein, His Tag (Acro …). Put plainly: Octet BLI, IgG on anti-human Fc sensor, 50 nM TROP2-His; 1 = pH dependent.
Assay [5] shares this target. Put plainly: Octet BLI, IgG on anti-human Fc sensor, 50 nM TROP2-His; 2 = No change vs parent.
Assay [6] has the same target. Briefly: Octet BLI, IgG on anti-human Fc sensor, 50 nM TROP2-His; 1 = pH dependent. This is another data set of the same source.
Assay [7] addresses T4, Human TROP2 Protein, His Tag (Acro Biosystems) (human, UniProt P09758 27-274).
T4 construct: Bought antigen used at 50 nM in the Octet screen; also called TACSTD2; not shown: His tag
T4 sequence (looked up): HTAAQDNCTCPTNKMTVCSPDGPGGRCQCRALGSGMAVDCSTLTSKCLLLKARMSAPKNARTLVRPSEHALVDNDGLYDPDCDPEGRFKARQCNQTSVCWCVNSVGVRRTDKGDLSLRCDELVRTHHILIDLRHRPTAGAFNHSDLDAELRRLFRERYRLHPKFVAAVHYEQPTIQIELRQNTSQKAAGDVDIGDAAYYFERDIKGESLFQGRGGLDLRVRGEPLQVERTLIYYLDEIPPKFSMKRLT
Briefly: BLI (Octet) [1/2]. The essentials: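 Antibody variants from day-4 expression supernatants, diluted in 1×PBST pH 7.4 by expression level, captured on anti-human Fc tips. Association with 50 nM human TROP2-His in PBST pH 7.4 for 120 sec; dissociation in PBST pH 7.4 or pH 5.4 for 300 sec. Curves examined for koff at each pH versus parent antibody.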

Assay [8] has as its target TROP2 on TROP2-positive NCI-H1975 cells (human) (UniProt P09758). Briefly: cell-based or functional assay. Particulars: scale: % greater cytotoxicity compared to WT datopotamab.
For assay [9], the target named is T5, Human TROP2 Protein, His Tag (Acro Biosystems) (human, UniProt P09758 27-274).
T5 construct: Bought protein; also called TACSTD2; not shown: His tag
T5 sequence: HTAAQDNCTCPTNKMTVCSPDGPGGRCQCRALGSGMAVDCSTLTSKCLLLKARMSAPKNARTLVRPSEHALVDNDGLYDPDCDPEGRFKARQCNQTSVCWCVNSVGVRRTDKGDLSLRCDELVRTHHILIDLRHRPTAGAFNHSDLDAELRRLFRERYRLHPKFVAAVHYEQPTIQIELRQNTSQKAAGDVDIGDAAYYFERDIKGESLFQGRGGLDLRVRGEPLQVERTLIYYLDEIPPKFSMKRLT
Put plainly: BLI (Octet), antibody on anti-human Fc sensor, 50 nM human TROP2-His, dissociation at pH 7.4 or 5.4; grade 2 = No change vs parent.

Assay [10] addresses T5, Human TROP2 Protein, His Tag (Acro …). Briefly: BLI (Octet), antibody on anti-human Fc sensor, 50 nM human TROP2-His, dissociation at pH 7.4 or 5.4; grade 1 = pH dependent.
In assay [11] the target is T4, Human TROP2 Protein, His Tag (Acro …). Briefly: Octet BLI, IgG on anti-human Fc sensor, 50 nM TROP2; 1 = pH dependent.

B1: MYT11583 (antibody, V domains shown)
VH: QVQLQQSGSELKKPGASVKVSCKASGYTFTNYGMNWVKQAPGQGLKWMGWINTYTHEPTYTDDFKGRFAFSLDTSVSTAYLQISSLKADDTAVYFCARGGFGSSYWYFDVWGQGSLVTVSS
VL: DIQLTQSPSSLSASVGDRVSITCKASQDVSIAVAWYQQKPGKAPKLLIYSASYRYTGVPDRFSGSGSGTDFTLTISSLQPEDFAVYYCQQHYITPLTFGAGTKVEIK
notes: Sacituzumab variant, His at HCV position 56 (H2 07)
On to B1, for which the binding result in assay [1] is given as “binds”.

B2: MYT13257 (antibody, V domains shown)
VH: QVQLVQSGAEVKKPGASVKVSCKASGYTFTTAGMQWVRQAPGQGLEWMGWINTHSGVPKYAEDFKGRVTISADTSTSTAYLQLSSLKSEDTAVYYCAHSGFGSSYWYFDVWGQGTLVTVSS
VL: DIQMTQSPSSLSASVGDRVTITCKASQDHSTAVAWYQQKPGKAPKLLIYSASYRYTGVPSRFSGSGSGTDFTLTISSLQPEDFAVYYCQQHYITPLTFGQGTKLEIK
notes: Full-length IgG from Expi293 supernatant; also called datopotamab heavy chain and light chain pairing variant
As to B2, the binding result in assay [2] was “binds”.

B3: MYT12388 (antibody, V domains shown)
VH: QVQLVQSGAEVKKPGASVKVSCKASGYTFTTAGMQWVRQAPGQGLEWMGWINTHSGVPKYAEDFKGRVTISADTSTSTAYLQLSSLKSEDTAVYYCARSGFGSSYWYFDVWGQGTLVTVSS
VL: DIQMTQSPSSLSASVGDRVTITCKASQHVSTAVAWYQQKPGKAPKLLIYSHSYRYTGVPSRFSGSGSGTDFTLTISSLQPEDFAVYYCQQHYITPLTFGQGTKLEIK
notes: datopotamab VL 28, 51 substituted
Take B3: the binding result in assay [3] is recorded as “binds”.

B4: MYT12317 (antibody, V domains shown)
VH: QVQLQQSGSELKKPGASVKVSCKASGYTFTNYGMNWVKQAPGQGLKWMGWINTYTGEPTYTDHFHGRFAFSLDTSVSTAYLQISSLKADDTAVYFCARGGFGSSYWYFDVWGQGSLVTVSS
VL: DIQLTQSPSSLSASVGDRVSITCKASQDVSIAVAWYQQKPGKAPKLLIYSASYRYTGVPDRFSGSGSGTDFTLTISSLQPEDFAVYYCQQHYITPLTFGAGTKVEIK
notes: sacituzumab VH 63, 65 -> H
B4: the binding result in [4] is listed as “binds”.

B5: MYT12296 (antibody, V domains shown)
VH: QVQLQQSGSELKKPGASVKVSCKASGYTFTNHGMNWVKQAPGQGLKWMGWINTYTGEPTYTHDFKGRFAFSLDTSVSTAYLQISSLKADDTAVYFCARGGFGSSYWYFDVWGQGSLVTVSS
VL: DIQLTQSPSSLSASVGDRVSITCKASQDVSIAVAWYQQKPGKAPKLLIYSASYRYTGVPDRFSGSGSGTDFTLTISSLQPEDFAVYYCQQHYITPLTFGAGTKVEIK
notes: sacituzumab VH 32, 62 -> H
Take B5: in [5], the binding result was “binds”.

B6: MYT12399 (antibody, V domains shown)
VH: QVQLVQSGAEVKKPGASVKVSCKASGYTFTTAGMQWVRQAPGQGLEWMGWINTHSGVPKYAEDFKGRVTISADTSTSTAYLQLSSLKSEDTAVYYCARSGFGSSYWYFDVWGQGTLVTVSS
VL: DIQMTQSPSSLSASVGDRVTITCKASQHVSTAVAWYQQKPGKAPKLLIYSHSYRYTGVPSRFSGSGSGTDFTLTISSLQPEDFAVYYCHQHYITPLTFGQGTKLEIK
notes: datopotamab VL 28, 51, 89 substituted
As for B6, the binding result in [6] was “binds”.

B7: MYT11741 (antibody, V domains shown)
VH: QVQLQESGPGLVKPSETLSLTCTVSGGSISSYGVHWIRQPPGKGLEWIGVIWTSGVTDYNSALMGRVTISVDTSKNQFSLKLSSVTAADTAVYYCARDGDYDRYTHDYWGQGTLVTVSS
VL: DIVMTQSPDSLAVSLGERATINCRASKSVSTSGYSYMHWYQQKPGQPPKLLIYLASNLESGVPDRFSGSGSGTDFTLTISSLQAEDVAVYYCQHSRELPYTFGQGTKLEIK
As for B7, the binding result in [7] is “binds”. In addition, the cytotoxicity on TROP2-positive NCI-H1975 cells (antibody complexed to secondary antibody-MMAF, cell titer glow assay) in assay [8] turned out to be 30.

B8: MYT12452 (hu7E6SVG variant, LCV substitutions at 94, 101 (Ala at 94)) (antibody, V domains shown)
VH: QVQLQESGPGLVKPSETLSLTCTVSGGSISSYGVHWIRQPPGKGLEWIGVIWTSGVTDYNSALMGRVTISVDTSKNQFSLKLSSVTAADTAVYYCARDGDYDRYTMDYWGQGTLVTVSS
VL: DIVMTQSPDSLAVSLGERATINCRASKSVSTSGYSYMHWYQQKPGQPPKLLIYLASNLESGVPDRFSGSGSGTDFTLTISSLQAEDVAVYYCQASRELPYHFGQGTKLEIK
notes: Full IgG in Expi293 supernatant
Consider B8, for which, in assay [9], the binding result was “binds”.

B9: MYT12470 (hu7E6SVG variant, LCV substitutions at 93, 94, 97 (Ala at 94)) (antibody, V domains shown)
VH: QVQLQESGPGLVKPSETLSLTCTVSGGSISSYGVHWIRQPPGKGLEWIGVIWTSGVTDYNSALMGRVTISVDTSKNQFSLKLSSVTAADTAVYYCARDGDYDRYTMDYWGQGTLVTVSS
VL: DIVMTQSPDSLAVSLGERATINCRASKSVSTSGYSYMHWYQQKPGQPPKLLIYLASNLESGVPDRFSGSGSGTDFTLTISSLQAEDVAVYYCHASRHLPYTFGQGTKLEIK
notes: as for B8
Take B9: the binding result in [10] is “binds”.

B10: MYT11773 (antibody, V domains shown)
VH: QVQLQESGPGLVKPSETLSLTCTVSGGSISSYGVHWIRQPPGKGLEWIGVIWTSGVTDYNSALMGRVTISVDTSKNQFSLKLSSVTAADTAVYYCARDGDYDRYTMDYWGQGTLVTVSS
VL: DIVMTQSPDSLAVSLGERATINCRASKSVSTSGYSYMHWYQQKPGQPPKLLIYLASNLESGVPDRFSGSGSGTDFTLTISSLQAEDVAVYYCQHSRELPHTFGQGTKLEIK
notes: hu7E6SVG variant, His at LCV position 100 (L3 08); screened as IgG in Expi293 supernatant
Regarding B10, the binding result in [11] is listed as “binds”.

The record behind these values is patent US20260274985A1 (MYTHIC THERAPEUTICS, published 2026).
